Results from the supplement of paper PMC10724198.
± gives the standard deviation of the averaged measurements.

Test system: Saccharomyces cerevisiae
Assay: protein stability index of tFT-peptide fusion (C-terminal peptide) (PSI (0-1 scale)); higher = more stable (slower turnover)
Conditions: genetic background: wild type; temperature: 30 C
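Also: PSI is a weighted mean of sequencing reads over stability bins, variants kept only with over 10 reads, mCherry proximal and sfGFP distal, peptide attached via GGGS linker.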

Row | Sequence | protein stability index
1 | PHSGVVVRCPSG | 0.704 ± 0.022
2 | PPLPLPPSRSPA | 0.686 ± 0.026
3 | TRRAAARAVSAR | 0.7 ± 0.066
4 | HVYDQLLSGAVA | 0.691 ± 0.017
5 | RDLLPRWTWIIW | 0.76 ± 0.11
6 | YPTLHEPHSPAL | 0.738 ± 0.052
7 | PPPPAAFFPRSP | 0.827 ± 0.11
8 | KKNNNINKHTST | 0.6652 ± 0.0058
9 | LSILSIHAHRAN | 0.665 ± 0.099
10 | RLLLSVLFGFFA | 0.5248 ± 0.0011
11 | CVCHWTALCIQI | 0.512 ± 0.013
12 | ARRGIVQSRCNW | 0.684 ± 0.064
13 | GMSRLFTYRAAS | 0.72 ± 0.0091
14 | GWRGAAGVPTVD | 0.73 ± 0.031
15 | SPRLPAPPPPPQ | 0.702 ± 0.075
16 | PNNANHIKHRQY | 0.6722 ± 0.0012
17 | CLSILRNVVPII | 0.723 ± 0.08
18 | WGQGTGFWGLFG | 0.681 ± 0.024
19 | SVFVDNLAFSLD | 0.708 ± 0.071
20 | PLTSNTSPPPMT | 0.618 ± 0.072
21 | EEGARAAGGEPQ | 0.68 ± 0.036
22 | NEYFYINVRNRV | 0.6743 ± 0.0017
23 | RSLPSSPTPPED | 0.755 ± 0.081
24 | RFYLLAEDGSST | 0.703 ± 0.017
25 | APAFLSLVSFAS | 0.673 ± 0.017

Row | Sequence | protein stability index
26 | SRMRADRYWRNY | 0.622 ± 0.019
27 | VTTKMQVAGSRK | 0.6377 ± 0.00065
28 | CASPSPPPAPVL | 0.68 ± 0.022
29 | RKKGRKKKQDKN | 0.689 ± 0.023
30 | PLFLPALPPPLP | 0.687 ± 0.11
31 | PPSRTPFLPPFR | 0.691 ± 0.032
32 | CLSLVCGFPVVY | 0.605 ± 0.0099
33 | PPVSPPSPRLPL | 0.7329 ± 0.0049
34 | PSRPSPSPHLPL | 0.849 ± 0.011
35 | HILDHVTSSLSF | 0.66 ± 0.011
36 | YESHVLDRMDGR | 0.651 ± 0.026
37 | GGVGATSGRLSR | 0.712 ± 0.011
38 | SASRPRRWGLAR | 0.609 ± 0.007
39 | DLERRKGTGVWR | 0.6366 ± 0.0051
40 | SPPPPPPRPPPP | 0.691 ± 0.015
41 | TGEVSTRVGQRE | 0.66 ± 0.07
42 | SPEVIHVVFCDL | 0.697 ± 0.043
43 | AGRVGGFFFVVA | 0.608 ± 0.017
44 | RHILFLLLTPHS | 0.5774 ± 0.0026
45 | ELQVSGNTIIVV | 0.529 ± 0.032
46 | RFYSKDLVHLST | 0.6656 ± 0.0031
47 | PPSALPHPPLPP | 0.718 ± 0.028
48 | WDGGGGGFGLVV | 0.755 ± 0.06
49 | LPPPPLSPPSLV | 0.734 ± 0.0078
50 | PTTVSRPPPPSP | 0.711 ± 0.009

Row | Sequence | protein stability index
51 | ERKHIISKGMNN | 0.608 ± 0.041
52 | GVVWMSCGGGWG | 0.7543 ± 0.0068
53 | LISSPKIHLRTY | 0.742 ± 0.14
54 | SGHRLTYEFFPT | 0.741 ± 0.074
55 | ACSTALPFSFAS | 0.689 ± 0.0074
56 | PTITPPPPPPPP | 0.625 ± 0.0067
57 | LPFSPLSLLAHP | 0.782 ± 0.044
58 | RRARSAGADPRP | 0.684 ± 0.02
59 | LVRVFGQSPAPL | 0.696 ± 0.031
60 | TLLAPPAPTPAG | 0.684 ± 0.036
61 | TVRWRRGTGGAR | 0.704 ± 0.019
62 | GSNQYLNNTYLI | 0.64768 ± 0.00039
63 | VFVFRLYFCGCC | 0.495 ± 0.015
64 | RVLRREKPVVHC | 0.603 ± 0.008
65 | STPPPPHSASRS | 0.728 ± 0.059
66 | RRKGVAGKWARR | 0.586 ± 0.058
67 | AFCVSVLVGLGG | 0.487 ± 0.052
68 | EKPKEGKNETKK | 0.734 ± 0.042
69 | PFPPRRPSATTL | 0.727 ± 0.045
70 | VFQVFSVGTCSG | 0.6451 ± 0.0039
71 | GGVGVYSVMVGG | 0.575 ± 0.015
72 | FVVAERSDRNLV | 0.6875 ± 0.00093
73 | WGALVLAVRSAP | 0.642 ± 0.037
74 | ILPPCVNIGSGV | 0.64 ± 0.043
75 | KKNIKKKRNIEK | 0.625 ± 0.04

Row | Sequence | protein stability index
76 | LRVQASALHVLQ | 0.667 ± 0.021
77 | GRYLIGKNKRVI | 0.687 ± 0.011
78 | SPEFIQAIQNPV | 0.724 ± 0.049
79 | TGSRHDLDGSMK | 0.679 ± 0.017
80 | ECSPRQVPSLAE | 0.694 ± 0.028
81 | PRSRSGVAQGPE | 0.6607 ± 0.0039
82 | RERTNKKLAKDK | 0.656 ± 0.045
83 | FPLIFALFPTFF | 0.603 ± 0.0067
84 | PGWDSHRKILSQ | 0.68 ± 0.0083
85 | AAPKSGARASLW | 0.728 ± 0.084
86 | GRRRGGAVVEGV | 0.678 ± 0.01
87 | AGSCRCRTCCLV | 0.61354 ± 0.00038
88 | TRPLIRRRHWID | 0.697 ± 0.025
89 | AGPPRGVCARWC | 0.635 ± 0.011
90 | PYIPSSVSLRQD | 0.712 ± 0.0092
91 | YGILSVRGSLSR | 0.76 ± 0.065
92 | GINEGRAISDDW | 0.725 ± 0.021
93 | RTQKNMKKSYCG | 0.63 ± 0.0075
94 | PHFLNNRNTIRR | 0.714 ± 0.04
95 | DVLASSSVWFLI | 0.624 ± 0.0057
96 | VAPPIPSKAGHL | 0.753 ± 0.2
97 | FTFFFNCYSRSS | 0.655 ± 0.038
98 | RKEKKMKITKRC | 0.691 ± 0.044
99 | KQVIIEKSIQQR | 0.661 ± 0.051
100 | IRNACRINESQC | 0.698 ± 0.017

Row | Sequence | protein stability index
101 | LIVPGGLSVFGG | 0.676 ± 0.082
102 | LWGSGRNWLLWR | 0.7 ± 0.017
103 | GWALGRAGASGA | 0.701 ± 0.067
104 | RPLPPPPPPRSP | 0.741 ± 0.21
105 | PPAPPPLPPPTH | 0.633 ± 0.049
106 | AFNRYASRIQEV | 0.695 ± 0.02
107 | PHADFALFPFSP | 0.785 ± 0.036
108 | RFSVRGARHRCG | 0.693 ± 0.0079
109 | LSPPFLLTSPLT | 0.703 ± 0.046
110 | LEVAGVLCSRVC | 0.56 ± 0.016
111 | EGGGASELGAPN | 0.567 ± 0.095
112 | RDPPLPRRLPSL | 0.706 ± 0.058
113 | NKFSAFSPETWS | 0.7385 ± 0.00092
114 | PPRPRRPLHRSS | 0.664 ± 0.011
115 | VDHRFLWALSSF | 0.751 ± 0.043
116 | RRLMMPSGQGLT | 0.702 ± 0.031
117 | YGMETVAVYTEG | 0.666 ± 0.019
118 | NLPLPPSPFALP | 0.733 ± 0.053
119 | SFLHLLCSFVLL | 0.51 ± 0.039
120 | PSFRTGLPPSDP | 0.681 ± 0.038
121 | EKMILEIKRGRI | 0.688 ± 0.036
122 | VDSAPRPPPEPC | 0.649 ± 0.041
123 | TPPPSLPPPPPP | 0.627 ± 0.07
124 | VRVSGVSVVRFW | 0.667 ± 0.012
125 | KRGKNKKRKQKK | 0.716 ± 0.0076

Row | Sequence | protein stability index
126 | SNWGLYGCRLYP | 0.759 ± 0.073
127 | GFFSCAPFPFNG | 0.741 ± 0.082
128 | PSLSPVEVPLSR | 0.759 ± 0.046
129 | EGREGVFGEGRA | 0.703 ± 0.031
130 | SLLPHSPLLPPP | 0.694 ± 0.0031
131 | PGCNLPLVPPRL | 0.701 ± 0.018
132 | EPAAHCGERRHL | 0.608 ± 0.064
133 | PPLSLPLCLSPL | 0.6838 ± 0.0035
134 | SGSMHWTDPPGS | 0.6747 ± 0.0051
135 | FLPPPPVLPSLP | 0.697 ± 0.024
136 | RRPRPRSGWILL | 0.69 ± 0.047
137 | PPPLSPSTSDHP | 0.652 ± 0.019
138 | DGSPLGSIQQAP | 0.673 ± 0.013
139 | HPSPPPPPPFPT | 0.748 ± 0.038
140 | AARSEVASAAGR | 0.643 ± 0.016
141 | ITRVGSLENSQV | 0.635 ± 0.013
142 | CWNVLVPFDEVI | 0.6 ± 0.08
143 | PEQKKRKVKIKK | 0.686 ± 0.16
144 | PSPALGPFLAYR | 0.695 ± 0.0077
145 | LPPPPPPLPHPP | 0.597 ± 0.083
146 | PPTPPPPSLTPP | 0.746 ± 0.027
